# Laboratory results as given in paper PMC10105285 (Cell reports, 2023).
# B1: Der p 1 (Dermatophagoides pteronyssinus major mite allergen 1), biotinylated (natural protein, UniProt P08176 99-320, looked up)
# chain: TNACSINGNAPAEIDLRQMRTVTPIRMQGGCGSCWAFSGVAATESAYLAYRNQSLDLAEQELVDCASQHGCHGDTIPRGIEYIQHNGVVQESYYRYVAREQSCRRPNAQRFGISNYCQIYPPNVNKIREALAQTHSAIAVIIGIKDLDAFRHYDGRTIIQRDNGYQPNYHAVNIVGYSNAQGVDYWIVRNSWDTNWGDNGYGYFAANIDLMMIEEYPYVVIL
# modifications: biotinylated
# Target: T1, FLAG-tagged human LMAN1, wild type (pED-FLAG-LMAN1) (human, UniProt P49257 31-510)
# T1 sequence (looked up): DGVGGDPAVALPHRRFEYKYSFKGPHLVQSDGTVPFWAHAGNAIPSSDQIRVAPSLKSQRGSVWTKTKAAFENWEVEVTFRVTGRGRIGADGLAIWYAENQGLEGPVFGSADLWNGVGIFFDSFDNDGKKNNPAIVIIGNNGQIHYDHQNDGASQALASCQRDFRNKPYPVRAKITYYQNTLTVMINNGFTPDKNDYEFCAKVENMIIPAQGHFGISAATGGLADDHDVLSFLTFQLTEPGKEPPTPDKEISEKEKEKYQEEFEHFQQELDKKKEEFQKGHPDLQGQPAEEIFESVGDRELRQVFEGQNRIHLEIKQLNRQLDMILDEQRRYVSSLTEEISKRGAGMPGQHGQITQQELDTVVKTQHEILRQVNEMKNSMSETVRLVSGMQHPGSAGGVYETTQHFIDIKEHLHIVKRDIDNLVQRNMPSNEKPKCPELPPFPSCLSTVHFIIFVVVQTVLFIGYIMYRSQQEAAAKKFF
# Experiment: flow cytometry on cells
binder,measurement,value
B1,binding result,binds
